The record followed here is publication PMC9122589.

Series [1] has as its target BrxR (R47A) from Acinetobacter sp. NEB394 (Acinetobacter sp. NEB394). Kind of series: SEC; elution profile of purified protein on size exclusion chromatography; conditions of this run not stated.
Series [2] concerns the target BrxR ('BREX Regulator') from Acinetobacter sp. NEB394, untagged (Acinetobacter sp. NEB394). The description is as above.
Series [3] shares this target. Kind of series: crystal structure; BrxR (125 uM) co-crystallized with 25 bp dsDNA target (150 uM), 2.3 Å, molecular replacement; 0.04 M citric acid, 20% PEG 3350, 60 mM Bis-Tris propane pH 6.4.
Series [4] concerns the target selenomethionyl (SeMet)-containing BrxR from Acinetobacter sp. NEB394 (Acinetobacter sp. NEB394). Kind of series: crystal structure; apo BrxR, SeMet-derivatized protein, SAD phasing, 2.3 Å; crystals from 10% PEG3000, 0.1 M HEPES pH 7.3, 2% benzamidine-HCl.
Series [5] deals with BrxR (untagged WT) (Acinetobacter sp. NEB394) (UniProt A0A7H8SL41). Kind of series: EMSA. As to conditions: EMSA: 20 mM Tris pH 7.9, 40 mM NaCl, 2.5% sucrose, 22 C, 30 min; 20 nM DNA (10 nM in Fig S6), 25-800 nM BrxR; 7% native gel in TBE. For orientation: In EMSA bound probe runs differently from free probe, usually more slowly.

With “BrxR (R47A) from Acinetobacter sp. NEB394 (natural protein)”, the stoichiometry N (usually a count of units in the complex or per binding partner) in series [1] amounted to 2.

Take “BrxR ('BREX Regulator') from Acinetobacter sp. NEB394, untagged (natural protein)”: the stoichiometry N in series [2] and in series [3] was 2 throughout.

In the case of “selenomethionyl (SeMet)-containing BrxR from Acinetobacter sp. NEB394 (natural protein)”, the stoichiometry N in series [4] came out at 2. For “GCGGAGTCCATCCAAACATCGGGAGATTTTGATCAGATATGTTTAACCTGCCCTCACAATACCGTAAAAATAATTTACTGTATATTCATTGTAGGGTAGTCTTGATCACATTGTTTATTGACCGATTGTTCTATGACAGCAGACAAGCATGAAGTGCTTCTCAGAATGAGGGCGATTGAGTTACTGGCCTACTGGGAAGGGCGTTTG (double strand) [BREX upstream region -109/+98 (~200 bp)]”, in series [5], the Kd (in general, the concentration at which binding is half-saturated) turned out to be 100 nM.
